Data as given in patent US20070275900.

Tests used:
H-Val-Ala-NAP-TSAO = target: T1, H-Val-Ala-NAP-TSAO
T1 chain: VA

H-Val-4HyPro-NAP-TSAO = target: T2, H-Val-4HyPro-NAP-TSAO
T2 chain: VP

H-Asp-Pro-NAP-TSAO = target: T3, H-Asp-Pro-NAP-TSAO
T3 chain: DP

[1] = target: T4, H-Val-Pro-Val-Pro-NAP-TSAO
T4 chain: VPVP

[2] = target: T5, H-Lys-Pro-Asp-Pro-NAP-TSAO
T5 chain: KPDP

H-Val-Leu-NAP-TSAO = target: T6, H-Val-Leu-NAP-TSAO
T6 chain: VL

[3] = target: T7, Z-Val-Pro-Val-Pro-NAP-TSAO
T7 chain: VPVP

H-Val-Pro-Val-NHP-TSAO = target: T8, H-Val-Pro-Val-NHP-TSAO
T8 chain: VPV

Val-Pro-PI 1 = target: T9, Val-Pro-PI 1
T9 chain: VP

[4] = target: T10, H-Val-Ala-Val-Pro-NAP-TSAO
T10 chain: VAVP

Fmoc-Val-Pro-Doxorubicin = target: T11, Fmoc-Val-Pro-Doxorubicin
T11 chain: VP

H-Val-Pro-NAP-TSAO = target: T12, H-Val-Pro-NAP-TSAO
T12 chain: VP

[5] = target: T13, Me-NH-Val-Pro-Val-NHP-TSAO
T13 chain: VPV

[6] = target: T14, NH2-Val-HyPro(Bzl)-NAP-TSAO
T14 chain: VP

H-Gly-Pro-NAP-TSAO = target: T15, H-Gly-Pro-NAP-TSAO
T15 chain: GP

H-Val-D-Pro-NAP-TSAO = target: T16, H-Val-D-Pro-NAP-TSAO
T16 chain: VP

H-Val-Gly-NAP-TSAO = target: T17, H-Val-Gly-NAP-TSAO
T17 chain: VG

H-Val-Pro-Val-NAP-TSAO = target: T18, H-Val-Pro-Val-NAP-TSAO
T18 chain: VPV

H-Lys-Pro-NAP-TSAO = target: T19, H-Lys-Pro-NAP-TSAO
T19 chain: KP

[7] = target: T20, H-Val-Pro-6-Aminoquinoline
T20 chain: VP

H-Gly-3.4Hypro-NAP-TSAO = target: T21, H-Gly-3.4Hypro-NAP-TSAO
T21 chain: GP

H-Val-Pro-Doxorubicin = target: T22, H-Val-Pro-Doxorubicin
T22 chain: VP

H-Val-Phe-NAP-TSAO = target: T23, H-Val-Phe-NAP-TSAO
T23 chain: VF

H-Tyr-Pro-NAP-TSAO = target: T24, H-Tyr-Pro-NAP-TSAO
T24 chain: YP

B1: purified CD26 (dipeptidyl-peptidase IV, EC 3.4.14.5) (protein)
chain: MKTPWKVLLGLLGAAALVTIITVPVVLLNKGTDDATADSRKTYTLTDYLKNTYRLKLYSLRWISDHEYLYKQENNILVFNAEYGNSSVFLENSTFDEFGHSINDYSISPDGQFILLEYNYVKQWRHSYTASYDIYDLNKRQLITEERIPNNTQWVTWSPVGHKLAYVWNNDIYVKIEPNLPSYRITWTGKEDIIYNGITDWVYEEEVFSAYSALWWSPNGTFLAYAQFNDTEVPLIEYSFYSDESLQYPKTVRVPYPKAGAVNPTVKFFVVNTDSLSSVTNATSIQITAPASMLIGDHYLCDVTWATQERISLQWLRRIQNYSVMDICDYDESSGRWNCLVARQHIEMSTTGWVGRFRPSEPHFTLDGNSFYKIISNEEGYRHICYFQIDKKDCTFITKGTWEVIGIEALTSDYLYYISNEYKGMPGGRNLYKIQLSDYTKVTCLSCELNPERCQYYSVSFSKEAKYYQLRCSGPGLPLYTLHSSVNDKGLRVLEDNSALDKMLQNVQMPSKKLDFIILNETKFWYQMILPPHFDKSKKYPLLLDVYAGPCSQKADTVFRLNWATYLASTENIIVASFDGRGSGYQGDKIMHAINRRLGTFEVEDQIEAARQFSKMGFVDNKRIAIWGWSYGGYVTSMVLGSGSGVFKCGIAVAPVSRWEYYDSVYTERYMGLPTPEDNLDHYRNSTVMSRAENFKQVEYLLIHGTADDNVHFQQSAQISKALVDVGVDFQAMWYTDEDHGIASSTAHQHIYTHMSHFIKQCFSLP
Which Conversion %, 1 h (H-Val-Ala-NAP-TSAO) does the source give for B1 here?
The Conversion %, 1 h was 0%.

And the Conversion %, 4 h (H-Val-Ala-NAP-TSAO)?
Its Conversion %, 4 h is 6.5%.

What about the Conversion %, 24 h (H-Val-Ala-NAP-TSAO) of the same protein?
Its Conversion %, 24 h is 35%.

And the Conversion %, 1 h (H-Val-4HyPro-NAP-TSAO)?
Its Conversion %, 1 h is 4.1%.

And the Conversion %, 4 h (H-Val-4HyPro-NAP-TSAO)?
Its Conversion %, 4 h is 18%.

And the Conversion %, 24 h (H-Val-4HyPro-NAP-TSAO)?
The Conversion %, 24 h was 53%.

What about the Conversion %, 4 h (H-Asp-Pro-NAP-TSAO) of the same protein?
Its Conversion %, 4 h is 7.9%.

What about the Conversion %, 24 h (H-Asp-Pro-NAP-TSAO) of the same protein?
The Conversion %, 24 h was 30%.

What about the % conversion, 1 h [1] of the same protein?
Its % conversion, 1 h is 43%.

And the % conversion, 4 h [1]?
Its % conversion, 4 h is 86%.

What about the % conversion, 24 h [1] of the same protein?
The % conversion, 24 h was 88%.

And the % conversion, 1 h, to the dipeptide intermediate (a) [2]?
Its % conversion, 1 h, to the dipeptide intermediate (a) is 88%.

And the % conversion, 1 h, to the parent compound (b) [2]?
Its % conversion, 1 h, to the parent compound (b) is 2.1%.

And the % conversion, 4 h, to the dipeptide intermediate (a) [2]?
The % conversion, 4 h, to the dipeptide intermediate (a) was 86%.

And the % conversion, 4 h, to the parent compound (b) [2]?
The % conversion, 4 h, to the parent compound (b) was 6%.

What about the % conversion, 24 h, to the dipeptide intermediate (a) [2] of the same protein?
Its % conversion, 24 h, to the dipeptide intermediate (a) is 74%.

And the % conversion, 24 h, to the parent compound (b) [2]?
Its % conversion, 24 h, to the parent compound (b) is 26%.

And the Conversion %, 1 h (H-Val-Leu-NAP-TSAO)?
The Conversion %, 1 h was 0%.

And the Conversion %, 4 h (H-Val-Leu-NAP-TSAO)?
Its Conversion %, 4 h is 0%.

And the Conversion %, 24 h (H-Val-Leu-NAP-TSAO)?
Its Conversion %, 24 h is 0%.

And the % conversion, 1 h [3]?
Its % conversion, 1 h is 0%.

What about the % conversion, 4 h [3] of the same protein?
The % conversion, 4 h was 0%.

And the % conversion, 24 h [3]?
The % conversion, 24 h was 0%.

And the Conversion %, 1 h (H-Val-Pro-Val-NHP-TSAO)?
Its Conversion %, 1 h is 33%.

What about the Conversion %, 4 h (H-Val-Pro-Val-NHP-TSAO) of the same protein?
The Conversion %, 4 h was 60%.

What about the “conversion of PI-2 to PI-1 by purified CD26” value (Val-Pro-PI 1) of the same protein?
Its value is “Within 60 min, PI-2 was completely converted to PI-1 by purified CD26”.

And the % conversion, 1 h [4]?
Its % conversion, 1 h is 12%.

And the % conversion, 4 h [4]?
The % conversion, 4 h was 54%.

And the % conversion, 24 h [4]?
The % conversion, 24 h was 70%.

And the % conversion, 1 h (Fmoc-Val-Pro-Doxorubicin)?
The % conversion, 1 h was 0%.

What about the % conversion, 4 h (Fmoc-Val-Pro-Doxorubicin) of the same protein?
The % conversion, 4 h was 0%.

What about the % conversion, 24 h (Fmoc-Val-Pro-Doxorubicin) of the same protein?
The % conversion, 24 h was 0%.

And the Conversion %, 1 h (H-Val-Pro-NAP-TSAO)?
The Conversion %, 1 h was 37%.

And the Conversion %, 4 h (H-Val-Pro-NAP-TSAO)?
Its Conversion %, 4 h is 62%.

And the Conversion %, 24 h (H-Val-Pro-NAP-TSAO)?
The Conversion %, 24 h was 61%.

What about the “conversion of 50 µM CAM-405 to CAM-212 by 5.7 mUnits purified CD26, 30 min (HPLC)” value (H-Val-Pro-NAP-TSAO) of the same protein?
Its value is “fifty percent of the TSAO dipeptide derivative was converted to CAM-212 within 30 min”.

And the “conversion of 50 µM CAM-405 to CAM-212 by 5.7 mUnits purified CD26, first 10 min (HPLC)” value (H-Val-Pro-NAP-TSAO)?
Its value is “Within the first 10 min of the reaction, at least 20% of CAM-405 had been converted to CAM-212”.

What about the “hydrolysis of 50 µM CAM-405 by 5.7 mUnits purified CD26, 60 min (HPLC)” value (H-Val-Pro-NAP-TSAO) of the same protein?
Its value is “˜67% of CAM-405 was hydrolysed after 60 min”.

And the Conversion %, 1 h [5]?
The Conversion %, 1 h was 0%.

What about the Conversion %, 4 h [5] of the same protein?
The Conversion %, 4 h was 0%.

What about the Conversion %, 24 h [5] of the same protein?
Its Conversion %, 24 h is 0%.

And the Conversion %, 4 h [6]?
Its Conversion %, 4 h is 0%.

What about the Conversion %, 24 h [6] of the same protein?
The Conversion %, 24 h was 0%.

What about the Conversion %, 1 h (H-Gly-Pro-NAP-TSAO) of the same protein?
Its Conversion %, 1 h is 5%.

And the Conversion %, 4 h (H-Gly-Pro-NAP-TSAO)?
The Conversion %, 4 h was 20%.

And the Conversion %, 24 h (H-Gly-Pro-NAP-TSAO)?
Its Conversion %, 24 h is 58%.

What about the Conversion %, 1 h (H-Val-D-Pro-NAP-TSAO) of the same protein?
Its Conversion %, 1 h is 0%.

What about the Conversion %, 4 h (H-Val-D-Pro-NAP-TSAO) of the same protein?
Its Conversion %, 4 h is 1%.

And the Conversion %, 24 h (H-Val-D-Pro-NAP-TSAO)?
Its Conversion %, 24 h is 2%.

What about the Conversion %, 1 h (H-Val-Gly-NAP-TSAO) of the same protein?
The Conversion %, 1 h was 0%.

What about the Conversion %, 4 h (H-Val-Gly-NAP-TSAO) of the same protein?
The Conversion %, 4 h was 0%.

What about the Conversion %, 24 h (H-Val-Gly-NAP-TSAO) of the same protein?
The Conversion %, 24 h was 0%.

And the Conversion %, 4 h (H-Val-Pro-Val-NAP-TSAO)?
The Conversion %, 4 h was 51%.

What about the Conversion %, 24 h (H-Val-Pro-Val-NAP-TSAO) of the same protein?
Its Conversion %, 24 h is 70%.

What about the Conversion %, 4 h (H-Lys-Pro-NAP-TSAO) of the same protein?
The Conversion %, 4 h was 85%.

And the Conversion %, 24 h (H-Lys-Pro-NAP-TSAO)?
The Conversion %, 24 h was 99%.

And the % conversion, 1 h [7]?
Its % conversion, 1 h is 99%.

And the % conversion, 4 h [7]?
The % conversion, 4 h was 100%.

What about the % conversion, 24 h [7] of the same protein?
The % conversion, 24 h was 100%.

And the Conversion %, 4 h (H-Gly-3.4Hypro-NAP-TSAO)?
Its Conversion %, 4 h is 0%.

And the Conversion %, 24 h (H-Gly-3.4Hypro-NAP-TSAO)?
Its Conversion %, 24 h is 0%.

And the % conversion, 1 h (H-Val-Pro-Doxorubicin)?
The % conversion, 1 h was 78%.

What about the % conversion, 4 h (H-Val-Pro-Doxorubicin) of the same protein?
The % conversion, 4 h was 95%.

And the % conversion, 24 h (H-Val-Pro-Doxorubicin)?
Its % conversion, 24 h is 97%.

And the Conversion %, 1 h (H-Val-Phe-NAP-TSAO)?
Its Conversion %, 1 h is 0%.

What about the Conversion %, 4 h (H-Val-Phe-NAP-TSAO) of the same protein?
Its Conversion %, 4 h is 0%.

What about the Conversion %, 24 h (H-Val-Phe-NAP-TSAO) of the same protein?
The Conversion %, 24 h was 0%.

And the Conversion %, 1 h (H-Tyr-Pro-NAP-TSAO)?
Its Conversion %, 1 h is 43%.

What about the Conversion %, 4 h (H-Tyr-Pro-NAP-TSAO) of the same protein?
Its Conversion %, 4 h is 56%.

What about the Conversion %, 24 h (H-Tyr-Pro-NAP-TSAO) of the same protein?
Its Conversion %, 24 h is 79%.
